According to patent publication US20240269235A1 (Gilead, published 2024):

T1: trimeric murine IL-2 receptor (IL-2Rα, IL-2Rβ, and IL-2Rγ) on CTLL-2 cells (murine, UniProt P01590 22-268; P16297 27-539; P34902 23-369)
T1 sequence (looked up) 1: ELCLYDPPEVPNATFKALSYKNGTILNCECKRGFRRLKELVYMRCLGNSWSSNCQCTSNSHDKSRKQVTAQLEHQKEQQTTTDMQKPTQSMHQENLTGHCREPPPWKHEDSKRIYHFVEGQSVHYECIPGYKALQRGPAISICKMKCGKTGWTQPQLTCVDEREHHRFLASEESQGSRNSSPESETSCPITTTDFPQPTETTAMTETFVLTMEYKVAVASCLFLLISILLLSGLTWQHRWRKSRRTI
T1 sequence (looked up) 2: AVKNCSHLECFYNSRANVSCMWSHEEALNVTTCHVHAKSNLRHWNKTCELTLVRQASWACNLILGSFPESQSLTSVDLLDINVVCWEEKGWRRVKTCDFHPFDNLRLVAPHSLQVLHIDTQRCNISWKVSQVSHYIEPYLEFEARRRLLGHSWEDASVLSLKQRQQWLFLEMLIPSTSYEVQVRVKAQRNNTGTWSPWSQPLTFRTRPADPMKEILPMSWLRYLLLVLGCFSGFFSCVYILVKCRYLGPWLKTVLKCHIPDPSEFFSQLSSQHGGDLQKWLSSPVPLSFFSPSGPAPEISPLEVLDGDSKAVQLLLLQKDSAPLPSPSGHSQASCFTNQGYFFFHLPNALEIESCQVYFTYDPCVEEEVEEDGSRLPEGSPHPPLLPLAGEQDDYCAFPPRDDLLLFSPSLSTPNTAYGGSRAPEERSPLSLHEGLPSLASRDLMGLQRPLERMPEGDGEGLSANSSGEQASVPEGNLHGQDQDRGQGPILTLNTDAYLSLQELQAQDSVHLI
T1 sequence (looked up) 3: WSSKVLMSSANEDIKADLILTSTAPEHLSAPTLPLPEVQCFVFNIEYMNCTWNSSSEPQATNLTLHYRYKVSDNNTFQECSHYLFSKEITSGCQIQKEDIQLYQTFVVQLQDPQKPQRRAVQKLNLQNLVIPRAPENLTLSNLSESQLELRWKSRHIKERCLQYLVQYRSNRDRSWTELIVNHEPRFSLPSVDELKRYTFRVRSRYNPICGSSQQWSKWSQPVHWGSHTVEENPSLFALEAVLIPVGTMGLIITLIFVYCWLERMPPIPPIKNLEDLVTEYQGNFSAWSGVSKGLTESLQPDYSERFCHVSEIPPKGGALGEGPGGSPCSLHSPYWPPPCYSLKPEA

T2: human IL-2Rα on Treg cells (CD3+, CD4+, CD25hi, FoxP3+) of human PBMC (human, UniProt P01589 22-272)
T2 sequence (looked up): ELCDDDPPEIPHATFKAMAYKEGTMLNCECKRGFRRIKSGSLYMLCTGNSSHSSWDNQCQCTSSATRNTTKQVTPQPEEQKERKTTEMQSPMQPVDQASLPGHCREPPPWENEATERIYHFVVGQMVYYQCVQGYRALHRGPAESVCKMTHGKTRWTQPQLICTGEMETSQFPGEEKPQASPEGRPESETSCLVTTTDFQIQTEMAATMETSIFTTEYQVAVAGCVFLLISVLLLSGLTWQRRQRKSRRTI

T3: IL-2Rα (recombinant IL-2 receptor α, R&D Systems Cat #: 223-2A/CF), biotinylated (human, UniProt P01589 22-213, limits assumed, biotinylated using sulfo-NHS-LC-LC-Biotin)
T3 construct: Bought reagent; also used here as the IL-2Rα partner of the in-silico analysis of PDB 2B5I (another construct); also called IL-2RA; CD25
T3 sequence (looked up): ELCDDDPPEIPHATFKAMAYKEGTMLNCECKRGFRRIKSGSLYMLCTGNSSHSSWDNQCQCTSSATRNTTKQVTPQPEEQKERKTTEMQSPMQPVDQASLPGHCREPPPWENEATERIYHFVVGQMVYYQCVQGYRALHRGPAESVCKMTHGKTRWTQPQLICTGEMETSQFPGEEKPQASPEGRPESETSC

T4: IL-2Rβ (recombinant IL-2 receptor β, R&D Systems Cat #:224-2B-025/CF), biotinylated (UniProt P14784 27-239, limits assumed, biotinylated using sulfo-NHS-LC-LC-Biotin)
T4 construct: Bought reagent; also called IL-2RB; CD122
T4 sequence (looked up): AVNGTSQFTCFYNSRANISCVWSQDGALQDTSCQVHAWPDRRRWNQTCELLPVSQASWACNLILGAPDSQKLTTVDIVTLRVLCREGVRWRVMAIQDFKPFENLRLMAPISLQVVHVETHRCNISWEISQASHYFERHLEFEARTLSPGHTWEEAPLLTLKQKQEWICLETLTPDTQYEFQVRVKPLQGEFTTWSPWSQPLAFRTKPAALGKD


Legend:
[1] = target: T1, trimeric murine IL-2 receptor (IL-2Rα, …); assay: cell-based or functional assay
[2] = target: T2, human IL-2Rα on Treg cells (CD3+, CD4+, …); assay: cell-based or functional assay
[3] = target: T3, IL-2Rα (recombinant IL-2 receptor α, …); assay: SPR (Biacore), C1 or CM5 chip, biotinylated receptor on neutravidin
Description: (§1) Data for binding of Fc-IL-2 variant fusion proteins to IL-2Rα, IL-2Rβ and IL-2Rβγ heterodimer were collected on a Biacore platform using either C1 or CM5 chips. Neutravidin was immobilized using standard amine coupling methods and used to capture biotinylated receptors. Commercially sourced IL-2Rα (R&D Systems Cat #: 223-2A/CF) and IL-2Rβ receptors (R&D Systems Cat #:224-2B-025/CF) were biotinylated using sulfo-NHS-LC-LC-Biotin, desalted, and then captured on the neutravidin surfaces. […] Distinct purification tags were appended to the C-terminus of each chain. A FLAG epitope tag ([…]; SEQ ID NO: 257) was added at the C-terminus of IL-2Rβ subunit, followed by C-terminal Hiss tag ([…]; SEQ ID NO: 258). An AviTag™ ([…]; SEQ ID NO: 259) motif on the IL-2Rγ subunit allowed for site-specific biotinylation of the heterodimer.
(§2) Fc IL 2 fusion protein variants, Fc protein, and Proleukin were injected at various concentrations over these surfaces. Kinetic data obtained from these injections was used to extract kₒₙ and koff to calculate KD (KD=koff/kₒₙ). Experiments were run at 25° C. in HBS-EP+ running buffer (10 mM HEPES, 150 mM NaCl, 3 mM EDTA, 0.05% Tween20, pH 7.4 with 0.1 mg/ml BSA). Data shown in Table 5 for Fc IL-2 fusion protein variants binding to the indicated IL-2R surfaces were derived from the global fitting of data obtained from 2-5 independent surfaces.

[4] = target: T5, IL-2Rβγ heterodimer, custom biotinylated Fc fusion protein (human IL-2Rβ 27-240-Fc-FLAG / human IL-2Rγ … (human, site-specific biotinylation at the AviTag)); assay: as above
T5 construct: Extracellular regions fused to IgG1 knob-in-hole Fc subunits with tags; also called IL-2 receptor βγ heterodimer; Fc-IL-2Rβγ
Description: as §1, §2

[5] = target: T4, IL-2Rβ (recombinant IL-2 receptor β, …); assay: as above
Description: as §1, §2

T5 sequence (chain, as listed by the source limits assumed): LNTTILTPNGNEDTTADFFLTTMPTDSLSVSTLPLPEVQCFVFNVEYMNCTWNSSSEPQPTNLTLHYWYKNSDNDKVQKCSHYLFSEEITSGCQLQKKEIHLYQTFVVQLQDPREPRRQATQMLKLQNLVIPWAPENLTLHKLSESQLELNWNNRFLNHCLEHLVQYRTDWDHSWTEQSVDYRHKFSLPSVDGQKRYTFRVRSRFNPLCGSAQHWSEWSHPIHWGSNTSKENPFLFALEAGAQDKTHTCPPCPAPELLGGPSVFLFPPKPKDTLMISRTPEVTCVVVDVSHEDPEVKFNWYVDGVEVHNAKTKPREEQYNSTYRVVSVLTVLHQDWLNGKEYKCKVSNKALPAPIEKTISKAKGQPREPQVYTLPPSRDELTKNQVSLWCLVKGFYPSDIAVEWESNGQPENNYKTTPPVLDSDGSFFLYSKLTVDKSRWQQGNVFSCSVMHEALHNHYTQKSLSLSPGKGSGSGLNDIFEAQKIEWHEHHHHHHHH

Binder	STAT5 activation of CTLL-2 cells, EC50 [1]	Treg EC50, STAT5 activation (PBMC STAT5 assay) [2]	Kd [3]	fold larger effect on reducing IL-2Rα affinity against R38A (heterodimer 82.46) [3]	Kd [4]	Kd [5]
Fc-IL-2v heterodimer 81.46 (hIL-2v_Δ1-5_R38G_C125S) (Fc fusion, hIgG4 knob-in-hole Fc heterodimer, one IL-2v on the knob chain) chain 1: ESKYGPPCPPCPAPEAAGGPSVFLFPPKPKDTLMISRTPEVTCVVVDVSQEDPEVQFNWYVDGVEVHNAKTKPREEQFNSTYRVVSVLTVLHQDWLNGKEYKCKVSNKGLPSSIEKTISKAKGQPREPQVYTLPPSQEEMTKNQVSLWCLVKGFYPSDIAVEWESNGQPENNYKTTPPVLDSDGSFFLYSRLTVDKSRWQEGNVFSCSVMHEALHNHYTQKSLSLSLGGGGGSGGGGSGGGGSGGGGSSTKKTQLQLEHLLLDLQMILNGINNYKNPKLTGMLTFKFYMPKKATELKHLQCLEEELKPLEEVLNLAQSKNFHLRPRDLISNINVIVLELKGSETTFMCEYADETATIVEFLNRWITFSQSIISTLT chain 2: ESKYGPPCPPCPAPEAAGGPSVFLFPPKPKDTLMISRTPEVTCVVVDVSQEDPEVQFNWYVDGVEVHNAKTKPREEQFNSTYRVVSVLTVLHQDWLNGKEYKCKVSNKGLPSSIEKTISKAKGQPREPQVYTLPPSQEEMTKNQVSLSCAVKGFYPSDIAVEWESNGQPENNYKTTPPVLDSDGSFFLVSRLTVDKSRWQEGNVFSCSVMHEALHNRFTQKSLSLSLGK	0.02 nM	0.07 nM	685 nM	6 fold	0.071 nM	7000 nM
Fc-IL-2v heterodimer 83.46 (hIL-2v_Δ1-5_T41G_C125S) (Fc fusion, hIgG4 knob-in-hole Fc heterodimer, one IL-2v on the knob chain) chain 1: ESKYGPPCPPCPAPEAAGGPSVFLFPPKPKDTLMISRTPEVTCVVVDVSQEDPEVQFNWYVDGVEVHNAKTKPREEQFNSTYRVVSVLTVLHQDWLNGKEYKCKVSNKGLPSSIEKTISKAKGQPREPQVYTLPPSQEEMTKNQVSLWCLVKGFYPSDIAVEWESNGQPENNYKTTPPVLDSDGSFFLYSRLTVDKSRWQEGNVFSCSVMHEALHNHYTQKSLSLSLGGGGGSGGGGSGGGGSGGGGSSTKKTQLQLEHLLLDLQMILNGINNYKNPKLTRMLGFKFYMPKKATELKHLQCLEEELKPLEEVLNLAQSKNFHLRPRDLISNINVIVLELKGSETTFMCEYADETATIVEFLNRWITFSQSIISTLT chain 2: ESKYGPPCPPCPAPEAAGGPSVFLFPPKPKDTLMISRTPEVTCVVVDVSQEDPEVQFNWYVDGVEVHNAKTKPREEQFNSTYRVVSVLTVLHQDWLNGKEYKCKVSNKGLPSSIEKTISKAKGQPREPQVYTLPPSQEEMTKNQVSLSCAVKGFYPSDIAVEWESNGQPENNYKTTPPVLDSDGSFFLVSRLTVDKSRWQEGNVFSCSVMHEALHNRFTQKSLSLSLGK	0.04 nM	< 0.001 nM	29 nM	–	0.15 nM	7300 nM
Fc-IL-2v heterodimer 86.46 (hIL-2v_Δ1-5_F42A_C125S) (Fc fusion, hIgG4 knob-in-hole Fc heterodimer, one IL-2v on the knob chain) chain 1: ESKYGPPCPPCPAPEAAGGPSVFLFPPKPKDTLMISRTPEVTCVVVDVSQEDPEVQFNWYVDGVEVHNAKTKPREEQFNSTYRVVSVLTVLHQDWLNGKEYKCKVSNKGLPSSIEKTISKAKGQPREPQVYTLPPSQEEMTKNQVSLWCLVKGFYPSDIAVEWESNGQPENNYKTTPPVLDSDGSFFLYSRLTVDKSRWQEGNVFSCSVMHEALHNHYTQKSLSLSLGGGGGSGGGGSGGGGSGGGGSSTKKTQLQLEHLLLDLQMILNGINNYKNPKLTRMLTAKFYMPKKATELKHLQCLEEELKPLEEVLNLAQSKNFHLRPRDLISNINVIVLELKGSETTFMCEYADETATIVEFLNRWITFSQSIISTLT chain 2: ESKYGPPCPPCPAPEAAGGPSVFLFPPKPKDTLMISRTPEVTCVVVDVSQEDPEVQFNWYVDGVEVHNAKTKPREEQFNSTYRVVSVLTVLHQDWLNGKEYKCKVSNKGLPSSIEKTISKAKGQPREPQVYTLPPSQEEMTKNQVSLSCAVKGFYPSDIAVEWESNGQPENNYKTTPPVLDSDGSFFLVSRLTVDKSRWQEGNVFSCSVMHEALHNRFTQKSLSLSLGK	1 nM	0.3 nM	2000 nM	–	0.094 nM	7100 nM
Fc-IL-2v heterodimer 87.46 (hIL-2v_Δ1-5_Y45G_C125S) (Fc fusion, hIgG4 knob-in-hole Fc heterodimer, one IL-2v on the knob chain) chain 1: ESKYGPPCPPCPAPEAAGGPSVFLFPPKPKDTLMISRTPEVTCVVVDVSQEDPEVQFNWYVDGVEVHNAKTKPREEQFNSTYRVVSVLTVLHQDWLNGKEYKCKVSNKGLPSSIEKTISKAKGQPREPQVYTLPPSQEEMTKNQVSLWCLVKGFYPSDIAVEWESNGQPENNYKTTPPVLDSDGSFFLYSRLTVDKSRWQEGNVFSCSVMHEALHNHYTQKSLSLSLGGGGGSGGGGSGGGGSGGGGSSTKKTQLQLEHLLLDLQMILNGINNYKNPKLTRMLTFKFGMPKKATELKHLQCLEEELKPLEEVLNLAQSKNFHLRPRDLISNINVIVLELKGSETTFMCEYADETATIVEFLNRWITFSQSIISTLT chain 2: ESKYGPPCPPCPAPEAAGGPSVFLFPPKPKDTLMISRTPEVTCVVVDVSQEDPEVQFNWYVDGVEVHNAKTKPREEQFNSTYRVVSVLTVLHQDWLNGKEYKCKVSNKGLPSSIEKTISKAKGQPREPQVYTLPPSQEEMTKNQVSLSCAVKGFYPSDIAVEWESNGQPENNYKTTPPVLDSDGSFFLVSRLTVDKSRWQEGNVFSCSVMHEALHNRFTQKSLSLSLGK	0.2 nM	0.03 nM	269 nM	–	0.016 nM	7000 nM
